From patent publication US20140308269A1 (published 2014)

How the values were obtained:
[1] = molecular target: T1, soluble ICAM-1 (Bender MedSystems) (UniProt P05362 28-480, limits assumed); test: ELISA on plate-coated soluble ICAM-1; reference Msc1A6
T1 construct: Bought soluble protein coated on the ELISA plate
Protocol: (§1) To evaluate the binding affinity of histidine-tagged human single chain (hsc) proteins soluble ICAM was used in an ELISA assay. A 96-well EIA plate (Corning, Inc.) was coated with 100 μl/well soluble ICAM-1 (Bender MedSystems) at 1 μg/ml in 0.1 M. NaHCO₃. After washing with TBST (50 mM Tris, pH8.0, 150 mM NaCl, 0.05% Tween-20), the plate was blocked with 3% non-fat milk in TBST at 37° C. for 1 hour. After washing with TBST, the plate was incubated with scFv samples (100 μl/well) diluted in 1% non-fat milk/TBST solution at room temperature for 1 hour. After washing with TBST, the horse radish peroxidase-conjugated anti-His (C-term) antibody (Invitrogen) diluted 1:2000 in 1% non-fat milk/TBST was added and the plate was incubated at room temperature for 1 hour. The plate was washed thoroughly with TBST and 100 μl/well 3,3′,5,5′-tetramethylbenzidine substrate solution (Kirkegaard and Perry Laboratories) was added. After 5 min incubation, the color development was stopped by adding […] 0.12 N HCl and the absorbance of the wells at 450 nm was measured by a plate reader (ICN).

[2] = molecular target: T1, soluble ICAM-1 (Bender MedSystems); test: ELISA on plate-coated soluble ICAM-1, His-tagged scFv detected with anti-His-HRP
Protocol: as §1

ICAM-1 on HeLa cells [3] = molecular target: T2, ICAM-1 on HeLa cells (UniProt P05362 28-532, limits assumed); test: cell-based or functional assay
T2 sequence (P05362 28-532 limits assumed): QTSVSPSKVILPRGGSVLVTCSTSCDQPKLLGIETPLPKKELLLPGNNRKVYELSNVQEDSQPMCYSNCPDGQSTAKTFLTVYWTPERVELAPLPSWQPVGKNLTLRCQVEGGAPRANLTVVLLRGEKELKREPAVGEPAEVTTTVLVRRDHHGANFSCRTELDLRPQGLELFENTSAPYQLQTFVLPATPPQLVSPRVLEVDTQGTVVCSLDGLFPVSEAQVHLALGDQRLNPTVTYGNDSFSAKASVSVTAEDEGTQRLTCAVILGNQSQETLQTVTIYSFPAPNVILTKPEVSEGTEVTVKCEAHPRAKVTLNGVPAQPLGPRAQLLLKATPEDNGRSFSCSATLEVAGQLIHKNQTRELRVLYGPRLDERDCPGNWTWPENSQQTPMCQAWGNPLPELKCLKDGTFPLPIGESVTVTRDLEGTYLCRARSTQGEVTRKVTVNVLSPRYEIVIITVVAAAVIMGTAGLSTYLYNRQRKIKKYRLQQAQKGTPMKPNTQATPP

ICAM-1 on HeLa cells [4] = molecular target: T2, ICAM-1 on HeLa cells; test: cell-based or functional assay; remark: listed apart in the source

T1 sequence (P05362 28-480 limits assumed): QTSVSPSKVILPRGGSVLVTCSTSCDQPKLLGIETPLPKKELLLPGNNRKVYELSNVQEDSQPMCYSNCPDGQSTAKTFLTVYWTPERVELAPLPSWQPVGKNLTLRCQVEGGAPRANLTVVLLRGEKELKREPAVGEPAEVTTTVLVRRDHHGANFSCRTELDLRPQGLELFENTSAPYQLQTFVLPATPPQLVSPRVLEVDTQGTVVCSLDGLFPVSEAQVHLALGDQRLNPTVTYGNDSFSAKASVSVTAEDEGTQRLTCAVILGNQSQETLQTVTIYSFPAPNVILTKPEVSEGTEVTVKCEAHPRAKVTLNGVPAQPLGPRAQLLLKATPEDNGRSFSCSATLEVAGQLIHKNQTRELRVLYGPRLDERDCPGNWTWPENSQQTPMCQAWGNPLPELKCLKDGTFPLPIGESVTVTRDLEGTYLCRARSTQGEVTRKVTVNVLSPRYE

B1: HscD (humanized 1A6 scFv HumD) (scFv)
scFv: DIQMTQSPSSLSASVGDRVTITCRASQSISNNLHWYQQKPGKAPKLLIYHASQSISGVPSRFSGSGSGTDFTLTISSLQPEDFATYYCQQSNSWPYTFGQGTKVEIKRGGGGSGGGGSGGGGSGGGGSEVQLVESGGGLVQPGGSLRLSCAASGFNIKDTYIHWVRQAPGKGLEWVARIDPANDNTIYADSVKGRFTISSDDSKNTAYLQMNSLRAEDTAVYYCTTSGYWFAYWGQGTLVTVSS
notes: not shown: carboxy-terminal His tag of vector pBAD/pIII A
- fold higher binding affinity than the parental mouse scFv [1]: > 10 fold
- Kd [2]: 23.3 nM
- EC 50 (µM): 50% protection of HeLa cells against HRV15 infection at 1 MOI (ICAM-1 on HeLa cells [3]): 0.05 µM

B2: HscA (humanized 1A6 scFv HumA) (scFv)
scFv: DIQMTQSPSSLSASVGDRVTITCRASQSISNNLHWYQQKPGKAPKLLIYHASQSISGVPSRFSGSGSGTDFTLTISSLQPEDFATYYCQQSNSWPYTFGQGTKVEIKRGGGGSGGGGSGGGGSGGGGSEVQLVESGGGLVQPGGSLRLSCAASGFNIKDTYIHWVRQAPGKGLEWVARIDPANDNTIYADSVKGRFTISSDDSKNTAYLQMNSLRAEDTAVYYCTDSGYWFAYWGQGTLVTVSS
notes: also called humanized scFv A; scFV3; not shown: carboxy-terminal His tag of vector pBAD/pIII A
- fold higher binding affinity than the parental mouse scFv [1]: > 10 fold
- Kd [2]: 150 nM

B3: HscF (humanized 1A6 scFv HumF) (scFv)
scFv: DIQMTQSPSSLSASVGDRVTITCRASQSISNNLHWYQQKPGKAPKLLIYHASQSISGVPSRFSGSGSGTDFTLTISSLQPEDFATYYCQQSNSWPYTFGQGTKVEIKRGGGGSGGGGSGGGGSGGGGSEVQLVESGGGLVQPGGSLRLSCAASGFNIKDTYIHWVRQAPGKGLEWVARIDPANDNTIYADSVKGRFTISADDSKNTAYLQMNSLRAEDTAVYYCTTSGYWFAYWGQGTLVTVSS
notes: as for B1
- fold higher binding affinity than the parental mouse scFv [1]: > 10 fold
- Kd [2]: 46 nM
- EC 50 (µM): 50% protection of HeLa cells against HRV15 infection at 1 MOI (ICAM-1 on HeLa cells [3]): 0.29 µM

B4: HscI (humanized 1A6 scFv HumI) (scFv)
scFv: DIQMTQSPSSLSASVGDRVTITCRASQSISNNLHWYQQKPGKAPKLLIKHASQSISGVPSRFSGSGSGTDFTLTISSLQPEDFATYYCQQSNSWPYTFGQGTKVEIKRGGGGSGGGGSGGGGSGGGGSEVQLVESGGGLVQPGGSLRLSCAASGFNIKDTYIHWMRQAPGKGLEWVARIDPANDNTIYDPKVQGRFTMSADTSKNTAYLQMNSLRAEDTAVYYCTTSGYWFAYWGQGTLVTVSS
notes: as for B1
- fold higher binding affinity than the parental mouse scFv [1]: > 10 fold
- Kd [2]: 150 nM
- EC 50 (µM): 50% protection of HeLa cells against HRV15 infection at 1 MOI (ICAM-1 on HeLa cells [3]): > 10 µM

B5: HscB (humanized 1A6 scFv HumB) (scFv)
scFv: DIQMTQSPSSLSASVGDRVTITCRASQSISNNLHWYQQKPGKAPKLLIYHASQSISGVPSRFSGSGSGTDFTLTISSLQPEDFATYYCQQSNSWPYTFGQGTKVEIKRGGGGSGGGGSGGGGSGGGGSEVQLVESGGGLVQPGGSLRLSCAASGFNIKDTYIHWVRQAPGKGLEWVARIDPANDNTIYADSVKGRFTISSDDSKNTAYLQMNSLRAEDTAVYYCTASGYWFAYWGQGTLVTVSS
notes: also called Hum19; Hum 19 scFv; not shown: carboxy-terminal His tag of vector pBAD/pIII A
- fold higher binding affinity than the parental mouse scFv [1]: > 10 fold
- Kd [2]: 26.2 nM
- EC50 of protection of HeLa cells from HRV infection, against the parental mouse 1A6 scFv protein (ICAM-1 on HeLa cells [4]): > 60 fold

B6: HscC (humanized 1A6 scFv HumC) (scFv)
scFv: DIQMTQSPSSLSASVGDRVTITCRASQSISNNLHWYQQKPGKAPKLLIYHASQSISGVPSRFSGSGSGTDFTLTISSLQPEDFATYYCQQSNSWPYTFGQGTKVEIKRGGGGSGGGGSGGGGSGGGGSEVQLVESGGGLVQPGGSLRLSCAASGFNIKDTYIHWVRQAPGKGLEWVARIDPANDNTIYADSVKGRFTISGDDSKNTAYLQMNSLRAEDTAVYYCTTSGYWFAYWGQGTLVTVSS
notes: as for B1
- fold higher binding affinity than the parental mouse scFv [1]: > 10 fold
- Kd [2]: 58 nM

B7: HscH (humanized 1A6 scFv HumH) (scFv)
scFv: DIQMTQSPSSLSASVGDRVTITCRASQSISNNLHWYQQKPGKAPKLLIKHASQSISGVPSRFSGSGSGTDFTLTISSLQPEDFATYYCQQSNSWPYTFGQGTKVEIKRGGGGSGGGGSGGGGSGGGGSEVQLVESGGGLVQPGGSLRLSCAASGFNIKDTYIHWVRQAPGKGLEWVARIDPANDNTIYDPKVQGRFTISADDSKNTAYLQMNSLRAEDTAVYYCTTSGYWFAYWGQGTLVTVSS
notes: as for B1
- fold higher binding affinity than the parental mouse scFv [1]: > 10 fold
- Kd [2]: 20.9 nM
- EC 50 (µM): 50% protection of HeLa cells against HRV15 infection at 1 MOI (ICAM-1 on HeLa cells [3]): 4.2 µM

B8: Msc1A6 (parental mouse monoclonal antibody 1A6 in the form of scFv) (scFv, V domains shown)
VH: EVQLQQSGAELVKPGASLKLSCTASGFNIKDTYIHWMKQRPEQGLEWIGRIDPANDNTIYDPKVQGKATMTADTSSNTAYLQLNSLTSEDTAVYYCTTSGYWFAYWGQGTLVTVSS
VL: DIVLTQSPATLSVTPGDSVSLSCRASQSISNNLHWYQQKHSESPRLLIKHASQSISGIPSRFSGSGSGTDFTLSINSVETEDFGMFFCQQSNSWPYTFGGGTKLEIKR
notes: Tested as a single-chain Fv (one polypeptide); also called Mouse 1A6 scFv; mouse IA6 scFv
- Kd [2]: 1180 nM
- EC 50 (µM): 50% protection of HeLa cells against HRV15 infection at 1 MOI (ICAM-1 on HeLa cells [3]): > 10 µM
